Data as given in publication PMC11809415, “Structure of the F-tractin–F-actin complex” (The Journal of Cell Biology, 2025).

B1: F-tractinopt–mCherry fusion [rat] / F-actin (rabbit skeletal muscle α-actin filaments) [rabbit] (parent)
chain 1: APRRSVGELRLLFEARAASAA
chain 2: not shown

Variants of: B1
Assay: high-speed cosedimentation assay (SDS-PAGE densitometry)
Conditions: with F-actin (rabbit skeletal muscle α-actin filaments) [rabbit]; 2 µM F-tractin-mCherry; high-speed sedimentation, 120,000 g; actin 0-40 µM

Row | Kd | Variant
1 | > 100 µM | chain 1 F13A
